{"source": "patent US20250346643A1", "about": "“TROPOMYOSIN KINASE RECEPTOR (TRK) LIGANDS AS THERAPEUTICS TO SUPPORT LIVER REGENERATION” (Vanderbilt University, priority 2024, published 2025)", "key": {"[1]": {"experiment": "Storage stability of solubilized recombinant NTF3 at -80 C", "type": "physicochemical", "settings": "solubilized in 0.1% BSA/PBS, stored at -80 C", "method": "Treatment with recombinant NTF3. Four months old mice were injected via tail vein for 4 consecutive days with recombinant NTF3 (STEMCELL technology, Vancouver, Canada; cat. 78074, lots 1000070683, 1000077434) diluted in sterile 0.9% saline (0.9% NaCl) or vehicle only. Mice were weighed daily and recombinant NTF3 given at 20 ng/g body weight or 100 ng/g body weight, respectively. Lyophilized NTF3 was solubilized in 0.1% BSA/PBS (bovine serum albumin, Sigma-Aldrich, St. Louis, MO; A3059) and stored at −80° C. until use.\nHuman HepG2 and mouse AML12 cells were grown in 6-well plates. Cells were treated with NTF3 (20 ng/ml) purchased from STEMCELL technologies, Vancouver, Canada (cat. 78074), R&D Systems, Minneapolis, MN (267-N3), Gibco, Waltham, MA (PHC7036) and/or Loxo-195 (5-10 nM) (Selleckchem, Houston, TX; S8636) in complete growth media without L-glutamine for 2 hours. Lyophilized NTF3 was solubilized with sterile filtered PBS supplemented with 0.1% BSA, aliquoted and stored at −80° C. until use. […] Protein concentration of supernatants were determined by Direct Detect Spectrophotometer (MilliporeSigma, Burlington, MA). […]\nImmunoblotting. […] Protein concentration of supernatants was determined by Direct Detect Spectrophotometer (MilliporeSigma, Burlington, MA). […] The protein concentration of supernatants was determined by a Direct Detect® spectrophotometer (MilliporeSigma, Burlington, MA). […]"}, "[2]": {"tested_on": "liver regeneration after partial hepatectomy", "type": "in vivo, mouse", "method": "Partial hepatectomy. All surgeries were performed per the National Institutes of Health recommendations contained in the Guide for the Care and Use of Laboratory. Mice were anesthetized with isoflurane and received preoperative extended-release buprenorphine subcutaneous (s.c.) for analgesia and eye ointment for protection. […] The evisceration of the median and left lateral lobes allowed suture ligation and ˜70% hepatectomy. Skin and abdominal muscles were closed in a two-step procedure. Mice were euthanized 1 h, 24 h, 2 days, 3 days, and 4 days after partial hepatectomy, and tissues were collected for processing. To test if recombinant NTF3 promotes liver regeneration, mice were injected intravenous (i.v.) with recombinant NTF3 (STEMCELL Technologies, Vancouver, Canada; catalog no. 78074, lot nos. 1000070683 and 1000077434) diluted in sterile 0.9% saline (0.9% NaCl) or vehicle only at approximately 1 hour prior to partial hepatectomy. Mice were then injected i.v. once per day with recombinant NTF3 or vehicle at 20 ng/g body weight until sacrifice. Lyophilized NTF3 was solubilized in 0.1% BSA/PBS (Sigma-Aldrich, St. Louis, MO; A3059) and stored at −80° C. until use.\nSerum chemistry. Whole blood was collected in blood collection tubes supplemented with lithium heparin (BD vacutainer, Franklin Lakes, NJ; Cat.366664). Blood was centrifuged at 4000 g for 15 min and the plasma collected and stored at −80° C. until analysis. Plasma was analyzed on a VetScan® vs2 (Abaxis, Union City, CA) using mammalian liver profile analysis discs (Abaxis, Union City, CA; 500-0040) according to the manufacturer's instructions.\nImmunohistochemistry. For immunohistochemistry, formalin-fixed paraffin-embedded (FFPE) sections were cut at a 4-μm thickness, and slides were incubated at 65° C. for 30 min. Slides were deparaffinized in Histo-Clear® (National Diagnostics, Charlotte, NC; HS2001GLL) and rehydrated by an ethanol gradient. Heat antigen retrieval was performed in 10 mM sodium citrate (pH 6.0) in a pressure cooker (Cuisinart®, CPC-600C), for 20 min at high pressure, natural pressure release for 30 min, and cooled at room temperature for 30 min. Endogenous peroxidase quenching was performed with 1.5% hydrogen peroxide (Sigma-Aldrich, St. Louis, MO; H1009) for 20 min, and slides were washed twice in PBS. Blocking was performed for 30 min with Protein Block, Serum-free (Agilent, Santa Clara, CA; X090930-2). The primary antibody was diluted in antibody diluent (Agilent, Santa Clara, CA; S080983-2) and applied to the slides in a wet chamber overnight at 4° C. After two washes in PBS, slides were incubated with the appropriate secondary antibody for 30 min, followed by two washes in PBS. […] The same reveal time was then used on all experimental slides. Slides were stained with hematoxylin (Sigma-Aldrich, St. Louis, MO; GHS332) for 30 s, washed gently in lukewarm tap water for 5 min, and washed twice in distilled water, followed by two washes in PBS (pH 7.4). Slides were washed in increasing ethanol/water gradients, followed by three washes in Histo-Clear®. Whole-slide scans for subsequent analyses and publishing were obtained using an SCN400 slide scanner (Leica, Wetzlar, Germany). Whole-slide images were processed and annotated in QuPath 0.5.1."}, "[3]": {"settings": "2 days after partial hepatectomy, NTF3 20 ng/g i.v. once per day"}, "[4]": {"settings": "4 days after partial hepatectomy, NTF3 20 ng/g i.v. once per day"}}, "note": "Read-outs that look alike come from different tables or passages of the source.", "data": [{"substance": "NTF3: neurotrophin-3, recombinant protein; HSC-derived hepatocyte mitogen, ligand of TRKA, TRKB, TRKC", "values": [{"measurement": "storage time at which activity and protein concentration declined significantly", "setting": "[1]", "value": "approximately 3 months"}, {"measurement": "liver to body weight ratio vs vehicle", "setting": "[2]; [3]", "value": "similar"}, {"measurement": "number of Ki67+ hepatocytes vs vehicle", "setting": "[2]; [3]", "value": "significantly increased"}, {"measurement": "number of Ki67+ hepatocytes vs vehicle", "setting": "[2]; 4 days after partial hepatectomy", "value": "increased number"}, {"measurement": "liver to body weight ratio vs controls", "setting": "[2]; [4]", "value": "significantly increased"}, {"measurement": "relative increase of liver to body weight ratio compared to controls", "setting": "[2]; [4]", "value": "10-23%"}, {"measurement": "adverse effects", "setting": "[2]; mouse, in vivo", "value": "no adverse effects"}, {"measurement": "serum ALP vs vehicle", "setting": "[2]; mouse, in vivo", "value": "similar"}, {"measurement": "serum ALT vs vehicle", "setting": "[2]; mouse, in vivo", "value": "similar"}, {"measurement": "serum albumin vs vehicle", "setting": "[2]; mouse, in vivo", "value": "similar"}]}]}
